By Kd is commonly meant the free concentration of one partner at which half of the binding sites on the other are occupied at equilibrium, for simple one-to-one binding. A word on the IC50: it is the concentration at which inhibition is half-maximal. In general, KD refers to the concentration at which binding is half-saturated.

Test [1] deals with HEK293 cells expressing full length sortilin receptor. Briefly: Cellular uptake of NA650 in HEK293/sortilin cells. The class given is cell-based. The conditions noted are these: for AUC score, target internalization: Table 6, NA650 (100 nM), 3 h, biotin warhead compounds; for IC50: SEQ ID NO.: 147 (300 nM) and NA650 (100 nM), 3 h incubation, competitor titrated, read-out: IC50 of inhibition of degrader induced internalization of NA650. Here is the method:
Cellular uptake of NA650 was investigated in HEK293 cells expressing full length sortilin receptor (Petersen et. al.). Cells were seeded in poly-L-lysine coated 96-well plates (Perkin Elmer) (40K/well) in 50 μL culture medium (DMEM (Lonza)+10% FBS (SigmaAldrich)+1% penicillin-streptomycin (SigmaAldrich)+1% GlutaMAX (Gibco)+100 μg/mL Zeocin (Invitrogen)) and incubated overnight in cell incubator (37° C., humidified, 5% CO2).
Culture medium was replaced with assay medium (DMEM (Lonza)+10% fetal bovine serum (SigmaAldrich)+1% penicillin-streptomycin (SigmaAldrich)+1% GlutaMAX (Gibco)) containing NA650 (Invitrogen) (100 nM) (Thermo Fischer) and peptidic bifunctional compounds (9.8 nM to 10 μM). Cells were incubated for 3 h in cell incubator before they were washed in dPBS (Bionordika). The DyLight650 signal in the cell layer was detected using a fluorescence plate reader (BMG Labtech Clariostar).
Cellular uptake of NA650 was investigated in HEK293 cells expressing full length sortilin receptor using a methodology analogous to example 3.

Test [2] has as its target T1, soluble ectodomain of sortilin-6his (Homo sapiens, UniProt Q99523, V650M).
T1 construct: the soluble ectodomain of sortilin-6his is measured by microscale thermophoresis (MST)
Briefly: MST binding to soluble ectodomain of sortilin-6his. The conditions noted are these: Table 4; small molecule bifunctional compounds; MST; read-out: KD score, binding to sortilin (Kd).

For test [3], the system named is HEK293 cells expressing full length sortilin receptor. The test is described as follows: Cellular uptake of AlexaFluor488-anti-DNP antibody. The class given is cell-based. The text has this: In this example, the small molecule degraders consist of a sortilin binder linked to warhead DNP to target anti-DNP antibodies (BF001 to BF016)
Cellular uptake of AlexaFluor488-anti-DNP antibody (Thermo Fisher) was investigated in HEK293 cells expressing full length sortilin receptor in a methodology analogous to example 3.

In test [4] the target is T2, Sortilin-6His (Homo sapiens (Human), UniProt Q99523 78-755).
T2 construct: In MST it was labelled non-covalently with RED-tris-NTA; also called soluble ectodomain of sortilin-6his; fluorescent sortilin-6his
T2 sequence (Q99523 78-755 V650M limits assumed): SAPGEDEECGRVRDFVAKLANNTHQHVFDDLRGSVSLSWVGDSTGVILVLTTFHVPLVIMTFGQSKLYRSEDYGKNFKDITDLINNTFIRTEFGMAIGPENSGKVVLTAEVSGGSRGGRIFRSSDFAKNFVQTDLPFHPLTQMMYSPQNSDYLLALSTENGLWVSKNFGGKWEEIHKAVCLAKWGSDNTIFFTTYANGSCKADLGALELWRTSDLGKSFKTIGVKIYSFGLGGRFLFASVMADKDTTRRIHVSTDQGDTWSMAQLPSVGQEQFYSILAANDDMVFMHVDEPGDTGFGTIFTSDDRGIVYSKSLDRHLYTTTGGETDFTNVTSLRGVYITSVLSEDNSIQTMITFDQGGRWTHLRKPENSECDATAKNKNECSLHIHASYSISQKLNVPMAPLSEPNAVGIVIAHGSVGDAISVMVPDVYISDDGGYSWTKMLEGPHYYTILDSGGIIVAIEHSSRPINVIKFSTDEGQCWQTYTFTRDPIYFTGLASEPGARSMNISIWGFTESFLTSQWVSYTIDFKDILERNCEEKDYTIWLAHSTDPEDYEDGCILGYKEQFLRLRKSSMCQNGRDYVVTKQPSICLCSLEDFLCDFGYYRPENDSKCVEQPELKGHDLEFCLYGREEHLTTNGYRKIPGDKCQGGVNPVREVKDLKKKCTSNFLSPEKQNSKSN
The test is described as follows: MST on labelled sortilin-6his ectodomain; KD score: +++ <25 nM, ++ 25-250 nM, + 250-2500 nM, 0 >2500 nM.

Test [5] addresses T2, Sortilin-6His. The test is described as follows: MST on labelled sortilin-6his ectodomain; KD score: ++ <100 nM, + 100-2000 nM.

Like-named read-outs stand apart in the source and are kept apart here. No end group written: not given here. *: point of attachment. Biotin = O=C1N[C@H]2[C@H](CS[C@H]2CCCCC(=O)*)N1 Some results are limits rather than exact numbers.

T1 sequence (Q99523 with tags, fused parts or gaps V650M): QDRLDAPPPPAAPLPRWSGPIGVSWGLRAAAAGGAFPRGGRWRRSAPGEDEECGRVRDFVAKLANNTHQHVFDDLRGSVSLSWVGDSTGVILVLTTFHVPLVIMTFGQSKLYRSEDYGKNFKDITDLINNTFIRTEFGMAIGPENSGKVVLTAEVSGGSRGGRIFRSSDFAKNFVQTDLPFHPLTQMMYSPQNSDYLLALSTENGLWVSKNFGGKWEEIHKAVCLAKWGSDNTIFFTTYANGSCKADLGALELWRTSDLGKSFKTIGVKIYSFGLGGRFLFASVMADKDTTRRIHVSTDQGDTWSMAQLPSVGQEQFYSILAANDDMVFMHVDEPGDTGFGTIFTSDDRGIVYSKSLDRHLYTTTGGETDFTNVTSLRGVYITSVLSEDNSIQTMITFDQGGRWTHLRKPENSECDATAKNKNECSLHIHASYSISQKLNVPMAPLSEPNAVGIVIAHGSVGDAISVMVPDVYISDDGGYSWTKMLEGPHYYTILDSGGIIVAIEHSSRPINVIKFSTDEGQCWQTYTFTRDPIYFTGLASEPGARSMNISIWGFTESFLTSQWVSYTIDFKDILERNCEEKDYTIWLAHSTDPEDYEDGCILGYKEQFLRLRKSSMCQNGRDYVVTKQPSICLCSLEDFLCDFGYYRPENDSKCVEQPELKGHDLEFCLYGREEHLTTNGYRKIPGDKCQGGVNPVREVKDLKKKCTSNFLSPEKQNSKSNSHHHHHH

Turning to `CC(C)(C)CC[C@H](NC(=O)c1ccc(Oc2cccc(OCCOCCOCCNC(=O)CCCC[C@@H]3SC[C@@H]4NC(=O)N[C@@H]43)c2)nc1)C(=O)O` [BF022, (S)-5,5-dimethyl-2-(6-(3-(2-(2-(2-(5-((3aS,4S,6aR)-2-oxohexahydro-1H-thieno[3,4-d]imidazol-4-yl)pentanamido)ethoxy)ethoxy)ethoxy)phenoxy)nicotinamido) hexanoic acid], in test [1], the “AUC score, target internalization” value is recorded as “+ (AUC < 100)”. In addition, in test [2], the Kd was 10 to 250 nM.

Consider `CC(C)(C)CC[C@H](NC(=O)c1ccc(Oc2cccc3cc(C(=O)NCCCNC(=O)CCCC[C@@H]4SC[C@@H]5NC(=O)N[C@@H]54)ccc23)nc1)C(=O)O` [BF024], for which the “AUC score, target internalization” value in test [1] is listed as “+ (AUC < 100)”. The Kd in test [2] fell in the range of 10 to 250 nM. Consider `O=C(O)CCCC[C@@H]1SC[C@@H]2NC(=O)N[C@@H]21` [biotin, reference compound], for which the concentration for half-maximal inhibition (IC50) in test [1] (Homo sapiens, HEK293) was 56 nM.

In the case of `Cc1cccc(NC(=O)c2ccc(C(F)(F)F)cc2C(=O)O)n1` [AF38469, reference compound], the 50% inhibitory concentration (IC50) in test [1] is 589 nM. On to `CC(C)(C)CC[C@H](NC(=O)c1ccc(Oc2cccc3c(C(=O)NCCCNC(=O)CCOCCOCCOCCOCCOCCNC(=O)CCCC[C@@H]4SC[C@@H]5NC(=O)N[C@@H]54)cccc23)nc1)C(=O)O` [BF028, (2S)-2-[[6-[[5-[3-[3-[2-[2-[2-[2-[2-[5-[(3aS,4S,6aR)-2-oxo-1,3,3a,4,6,6a-hexahydrothieno[3,4-d]imidazol-4-yl]pentanoylamino]ethoxy]ethoxy]ethoxy]ethoxy]ethoxy]propanoylamino]propylcarbamoyl]-1-naphthyl]oxy]pyridine-3-carbonyl]amino]-5,5-dimethyl-hexanoic acid], for which, in test [1], the “AUC score, target internalization” value was “++ (AUC > 100)”. In addition, in test [2], the Kd is 10 to 250 nM. On to `CC(C)(C)CC[C@H](NC(=O)c1ccc(Oc2cccc(C(=O)NCCOCCOCCOCCOCCOCCNc3ccc([N+](=O)[O-])cc3[N+](=O)[O-])c2)nc1)C(=O)O` [BF011, (2S)-2-[[6-[3-[2-[2-[2-[2-[2-[2-(2,4-dinitroanilino)ethoxy]ethoxy]ethoxy]ethoxy]ethoxy]ethylcarbamoyl]phenoxy]pyridine-3-carbonyl]amino]-5,5-dimethyl-hexanoic acid], for which, in test [3] (3 h incubation, 1.9 nM to 2 μM, AlexaFluor488-anti-DNP antibody 100 nM), the “cell associated FI signal, response to concentration series (in words)” value is “bell-shaped response”. For the same molecule, the “AUC score, target internalization” value in test [3] (Table 7, AlexaFluor488-anti-DNP antibody (100 nM), 3 h, DNP warhead compounds) is given as “+ (AUC < 10.000)”.

Turning to `CC(C)(C)CC[C@H](NC(=O)c1ccc(Oc2cccc(C(=O)NCCOCCOCCOCCOCCOCCOCCOCCOCCNC(=O)CCCC[C@@H]3SC[C@@H]4NC(=O)N[C@@H]43)c2)nc1)C(=O)O` [BF018, (2S)-2-[[6-[3-[2-[2-[2-[2-[2-[2-[2-[2-[2-[5-[(3aS,4S,6aR)-2-oxo-1,3,3a,4,6,6a-hexahydrothieno[3,4-d]imidazol-4-yl]pentanoylamino]ethoxy]ethoxy]ethoxy]ethoxy]ethoxy]ethoxy]ethoxy]ethoxy]ethylcarbamoyl]phenoxy]pyridine-3-carbonyl]amino]-5,5-dimethyl-hexanoic acid], in test [1], the “AUC score, target internalization” value is “++ (AUC > 100)”. The Kd in test [2] was in the range of 1 to 10 nM. As to REALRWDAPLRDPAPRQLL, in the test with Sortilin-6His [4], the KD was less than 25 nM.

For the molecule PYILKRQLYENKPRRPYIL, the KD in the test with Sortilin-6His [4] was less than 25 nM. Same read-out and setting: the result for REAPRWDAPLRDPALRQLL reads less than 25 nM; that for REAPRWDAPLRDPALRYYL, 25 to 250 nM; that for REAPRWDAPLRDPALRYLL, less than 25 nM. On the same count and under the same terms, with REAPRWDAPLRDPALFQLL the figure was less than 25 nM.

B1: Biotin-RQLL-OH (peptide)
peptide: Biotin-RQLL-OH
SMILES: CC(C)C[C@H](NC(=O)[C@H](CC(C)C)NC(=O)[C@H](CCC(N)=O)NC(=O)[C@H](CCCNC(=N)N)NC(=O)CCCC[C@@H]1SC[C@@H]2NC(=O)N[C@@H]21)C(=O)O
As to B1, the KD with Sortilin-6His [5] is less than 100 nM. H-RYYL-OH [H-RYYL-OH]: the KD with Sortilin-6His [4] was 25 to 250 nM. As to IQLL, in the test with Sortilin-6His [4], the KD is 250 to 2500 nM. Same read-out and setting: with H-RYIL-OH [H-RYIL-OH] the figure was 250 to 2500 nM. As to H-RYFL-OH [H-RYFL-OH], the KD with Sortilin-6His [4] lay in the range of 250 to 2500 nM.

As for LQLL, in the test with Sortilin-6His [4], the KD lay within 250 to 2500 nM.

B2: Biotin-GGSRQLL-OH (peptide)
peptide: Biotin-GGSRQLL-OH
SMILES: CC(C)C[C@H](NC(=O)[C@H](CC(C)C)NC(=O)[C@H](CCC(N)=O)NC(=O)[C@H](CCCNC(=N)N)NC(=O)[C@H](CO)NC(=O)CNC(=O)CNC(=O)CCCC[C@@H]1SC[C@@H]2NC(=O)N[C@@H]21)C(=O)O
Consider B2, for which the dissociation constant KD in the test with Sortilin-6His [5] was 100 to 2000 nM.

B3: Biotin-GGSGGGGFQLL-OH (peptide)
peptide: Biotin-GGSGGGGFQLL-OH
SMILES: CC(C)C[C@H](NC(=O)[C@H](CC(C)C)NC(=O)[C@H](CCC(N)=O)NC(=O)[C@H](Cc1ccccc1)NC(=O)CNC(=O)CNC(=O)CNC(=O)CNC(=O)[C@H](CO)NC(=O)CNC(=O)CNC(=O)CCCC[C@@H]1SC[C@@H]2NC(=O)N[C@@H]21)C(=O)O
In the case of B3, the KD in the test with Sortilin-6His [5] is less than 100 nM.

B4: Biotin-GGSGGGGRQLL-OH (peptide)
peptide: Biotin-GGSGGGGRQLL-OH
SMILES: CC(C)C[C@H](NC(=O)[C@H](CC(C)C)NC(=O)[C@H](CCC(N)=O)NC(=O)[C@H](CCCNC(=N)N)NC(=O)CNC(=O)CNC(=O)CNC(=O)CNC(=O)[C@H](CO)NC(=O)CNC(=O)CNC(=O)CCCC[C@@H]1SC[C@@H]2NC(=O)N[C@@H]21)C(=O)O
On to B4, for which the KD in the test with Sortilin-6His [5] is less than 100 nM.

B5: Biotin-GGSGGFQLL-OH (peptide)
peptide: Biotin-GGSGGFQLL-OH
SMILES: CC(C)C[C@H](NC(=O)[C@H](CC(C)C)NC(=O)[C@H](CCC(N)=O)NC(=O)[C@H](Cc1ccccc1)NC(=O)CNC(=O)CNC(=O)[C@H](CO)NC(=O)CNC(=O)CNC(=O)CCCC[C@@H]1SC[C@@H]2NC(=O)N[C@@H]21)C(=O)O
With B5, the KD in the test with Sortilin-6His [5] was less than 100 nM.

B6: Biotin-GGRQLL-OH (peptide)
peptide: Biotin-GGRQLL-OH
SMILES: CC(C)C[C@H](NC(=O)[C@H](CC(C)C)NC(=O)[C@H](CCC(N)=O)NC(=O)[C@H](CCCNC(=N)N)NC(=O)CNC(=O)CNC(=O)CCCC[C@@H]1SC[C@@H]2NC(=O)N[C@@H]21)C(=O)O
Take B6: the KD with Sortilin-6His [5] was less than 100 nM.

Turning to APLRDPAPRQLL, the KD with Sortilin-6His [4] lay in the range of 25 to 250 nM. On the same count and under the same terms, with WSGPIGVSWGLRAAAAGFQLL-OH [WSGPIGVSWGLRAAAAGFQLL-OH] the figure was less than 25 nM; with LYENKPRRPYIL, 25 to 250 nM; with GGSGGGGSGGGGSGGRQLL-OH [GGSGGGGSGGGGSGGRQLL-OH], 25 to 250 nM.

(Values after patent publication US20250345446A1 (Draupnir Bio ApS, priority 2022, published 2025).)
